Data taken from patent US20250018040A1 (UNITED STATES OF AMERICA AS REPRESENTED BY THE SECRETARY …, published 2025).

B1: mAb 15B6 (antibody, mouse IgG2b, V domains shown)
VH: EVQLQQSGPVLVKPGASVKISCKASGYSFTGYYMHWVRQSLVKRLEWIGRINPYTGVPSYKHNFKDKASLTVDKSSSTAYMELHSLTSEDSAVYYCARELGGYWGQGTTLTVSS
VL: QAVVTQESALTTSPGETVTLTCRSSTGAVTTGNYPNWVQEKPDHLFTGLIAGTNNRAPGVPARFSGSLIGDKAALTITGAQTEDEAIYFCALWFSSHWVFGGGTKLTVL
notes: Murine IgG2b; For flow cytometry it was conjugated to ALEXA FLUOR 647; also called monoclonal antibody 15B6; 15B6 (IgG2b)
B2: CAR Construct No. 2, 15B6 scFv (Vh-lin-Vl) (other)
chain: MEVQLQQSGPVLVKPGASVKISCKASGYSFTGYYMHWVRQSLVKRLEWIGRINPYTGVPSYKHNFKDKASLTVDKSSSTAYMELHSLTSEDSAVYYCARELGGYWGQGTTLTVSSGGGGSGGGGSGGGGSQAVVTQESALTTSPGETVTLTCRSSTGAVTTGNYPNWVQEKPDHLFTGLIAGTNNRAPGVPARFSGSLIGDKAALTITGAQTEDEAIYFCALWFSSHWVFGGGTKLTVLTSTTTPAPRPPTPAPTIASQPLSLRPEACRPAAGGAVHTRGLDFACDIYIWAPLAGTCGVLLLSLVITKRGRKKLLYIFKQPFMRPVQTTQEEDGCSCRFPEEEEGGCELRVKFSRSADAPAYQQGQNQLYNELNLGRREEYDVLDKRRGRDPEMGGKPRRKNPQEGLYNELQKDKMAEAYSEIGMKGERRRGKGHDGLYQGLSTATKDTYDALHMQALPPR
notes: Chimeric antigen receptor on 293T cells or T cells

Key:
[1] = molecular target: T1, full length Fc-mesothelin (UniProt Q13421 296-598, limits assumed); test: Western blot
T1 construct: it is written here as in the name; also called Fc-MSLN; full length mesothelin attached to an Fc protein; not shown: Fc protein
Description: (§1) A Western blot assay was carried out to test the ability of mAb 15B6 or control mAb MN to bind to full length Fc-mesothelin and shed mesothelin, which had been shed by OVCAR-8 cells. Equal amounts of OVCAR-8 cell growth media were collected. The proteins were resolved by SDS gel electrophoresis. The bands were detected by Western blot using the antibodies MN and/or 15B6. Full length mesothelin attached to an Fc protein was used as positive control and reacts with both antibodies.

shed mesothelin = molecular target: T2, shed mesothelin (UniProt Q13421 296-585, limits assumed); test: Western blot of OVCAR-8 growth medium
T2 construct: also called Shed MSLN; mesothelin shed by OVCAR-8 cells
Description: as §1

[2] = molecular target: T1, full length Fc-mesothelin; test: flow cytometry: Fc-mesothelin bound to 293T cells transfected with the CAR vector, detected with fluorescent anti-Fc antibody (column: Expressed by 293T cells?)
Description: 293T cells were independently transduced with the CAR-T vectors. Expression of each Fv by the 293T cells was tested. The CAR-T vectors were transfected into 293T cells. After two days of culture, Fc-mesothelin was bound to the cells. The bound Fc protein was detected by a secondary anti-Fc-antibody conjugated to a fluorescent dye using flow cytometry.

T1 sequence (Q13421 other isoform, or with tags, fused parts or gaps limits assumed): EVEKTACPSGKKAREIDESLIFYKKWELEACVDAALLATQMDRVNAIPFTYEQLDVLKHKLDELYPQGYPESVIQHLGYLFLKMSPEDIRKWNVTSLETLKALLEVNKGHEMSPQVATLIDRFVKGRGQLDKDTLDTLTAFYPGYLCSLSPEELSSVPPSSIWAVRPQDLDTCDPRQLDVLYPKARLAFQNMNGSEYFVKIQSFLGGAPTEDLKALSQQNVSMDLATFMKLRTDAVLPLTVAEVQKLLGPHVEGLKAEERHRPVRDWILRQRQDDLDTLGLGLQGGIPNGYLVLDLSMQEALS
T2 sequence (Q13421 other isoform, or with tags, fused parts or gaps limits assumed): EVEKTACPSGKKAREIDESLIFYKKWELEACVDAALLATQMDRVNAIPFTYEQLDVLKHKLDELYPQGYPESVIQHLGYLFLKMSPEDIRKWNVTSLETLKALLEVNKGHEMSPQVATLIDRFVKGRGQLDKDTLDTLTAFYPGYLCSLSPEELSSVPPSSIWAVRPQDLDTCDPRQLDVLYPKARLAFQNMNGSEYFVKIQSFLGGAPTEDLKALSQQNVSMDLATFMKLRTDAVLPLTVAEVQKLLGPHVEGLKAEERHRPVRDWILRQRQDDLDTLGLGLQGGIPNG

Binder	binding result [1]	binding result (shed mesothelin)	binding result [2]
B1	binds	no binding	–
B2	–	–	binds
